Assay results as given in US20240392024A1 (SHANGHAI CELGEN BIO PHARMACEUTICAL, published 2024).
Where “and” joins values, the source holds several entries; their conditions need not be identical. Equal values may be shown once.

T1: human TNFR2 on the cell membrane (human, UniProt P20333 23-461)
T1 construct: whole, on cells; One molecule for all cell formats; also called TNFR2-CHO cells; CHO-TNFR2
T1 sequence (looked up): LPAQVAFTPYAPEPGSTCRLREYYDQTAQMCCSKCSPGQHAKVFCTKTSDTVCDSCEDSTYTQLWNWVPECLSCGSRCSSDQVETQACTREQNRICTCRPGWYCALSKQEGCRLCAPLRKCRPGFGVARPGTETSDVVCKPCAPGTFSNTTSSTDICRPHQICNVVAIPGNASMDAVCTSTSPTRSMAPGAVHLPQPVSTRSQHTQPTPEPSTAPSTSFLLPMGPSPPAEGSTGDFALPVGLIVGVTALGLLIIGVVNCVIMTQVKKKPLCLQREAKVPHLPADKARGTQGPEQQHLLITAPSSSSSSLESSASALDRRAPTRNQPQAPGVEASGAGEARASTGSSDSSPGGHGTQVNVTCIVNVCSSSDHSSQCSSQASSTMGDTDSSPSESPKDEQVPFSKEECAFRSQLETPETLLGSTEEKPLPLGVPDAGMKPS

T2: TNFR2-His (Sino Biological, 10417-H08H, NP_001057.1 Met1-Asp257, with multi-histidine tag expressed on … (human, UniProt P20333 23-257))
T2 construct: range 1-257; Bought protein; also called recombinant human TNFR2 protein; TNFR2-His antigen; not shown: C-terminal multi-histidine tag
T2 sequence (looked up): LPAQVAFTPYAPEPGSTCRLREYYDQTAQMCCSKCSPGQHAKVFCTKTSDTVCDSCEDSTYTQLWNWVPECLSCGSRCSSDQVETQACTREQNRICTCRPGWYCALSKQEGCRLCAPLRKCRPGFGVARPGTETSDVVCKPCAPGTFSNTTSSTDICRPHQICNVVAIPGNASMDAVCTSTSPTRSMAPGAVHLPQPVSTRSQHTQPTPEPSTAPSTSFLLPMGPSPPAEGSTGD


How the values were obtained:
[1] = molecular target: T1, human TNFR2 on the cell membrane; experiment: flow cytometry, Jurkat-TNFR2 cells
Method: (§1) Purified human-mouse monoclonal antibodies against TNFR2 were co-cultured with TNFR2 positive Jurkat cells (Jurkat cells were transfected with pcDNA3.4-TNFR2 plasmid using conventional methods, and after screening, stable and highly expressed TNFR2 Jurkat cell lines were obtained) and stained. The antibody binding intensity was analyzed by flow cytometry. The specific steps are as follows: Jurkat-TNFR2 was counted, centrifuged, resuspended, then added to a 96-deep well plate, and the supernatant was discarded. The anti-TNFR2 antibody was gradient diluted, and added to the 96-deep well plate, After incubation and wash, the secondary antibody FITC-anti-human IgG (Abcam: 6854) was added, and the samples were detected using Beckman CytoFLEX.

[2] = molecular target: T1, human TNFR2 on the cell membrane; experiment: flow cytometry on Jurkat-TNFR2 cells
Method: as §1

[3] = molecular target: T1, human TNFR2 on the cell membrane; experiment: competition flow cytometry, TNFR2 positive cells, TNFα fusion protein at fixed concentration
Method: Purified anti-human TNFR2 human-mouse monoclonal antibodies were co-cultured with TNFR2 positive cells and stained. The antibody binding intensity was analyzed by flow cytometry. The specific steps are as follows: cells were counted, centrifugated, resuspended, then added to a 96-deep well plate, and the supernatant was discarded. Gradient diluted anti-TNFR2 antibodies and TNFα fusion protein of fixed concentration were added. After incubation and wash, the secondary antibody PE-streptavidin (Biogen, 405203) was added for incubation, and the samples were detected using Beckman CytoFLEX.

[4] = molecular target: T2, TNFR2-His (Sino Biological, 10417-H08H, …); experiment: competition ELISA, coated TNFR2-His, biotin-labeled TNFα fusion protein at fixed concentration
Method: (§2) The ELISA plate was coated with TNFR2-His antigen (Sino Biological, 10417-H08H, Assessment #NP_001057.1. Met1-Asp257, with multi-histidine tags expressed on C-terminus) and blocked, added with the gradient diluted TNFR2 monoclonal antibodies and biotin-labeled TNFα fusion protein of fixed concentration for incubation, then added with the secondary antibody Ap-Strepavidin (Herobio, 510401) for incubation. After development, the detection was performed using microplate reader.

[5] = molecular target: T2, TNFR2-His (Sino Biological, 10417-H08H, …); experiment: competition ELISA on coated TNFR2-His against biotin-labeled TNFα fusion protein at fixed concentration
Method: as §2

[6] = molecular target: T1, human TNFR2 on the cell membrane; experiment: flow cytometry, CHO-TNFR2 cells
Summary of the method: (§3)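 Binding was measured by flow cytometry (Beckman CytoFLEX) on a CHO line stably overexpressing human TNFR2. Cells in 96-deep-well plates were exposed to serially diluted antibodies, washed and labelled with a fluorescent anti-IgG secondary antibody, and EC50 was determined across the dilutions.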

[7] = molecular target: T1, human TNFR2 on the cell membrane; experiment: flow cytometry on CHO-TNFR2 cells
Summary of the method: as §3

[8] = molecular target: T2, TNFR2-His (Sino Biological, 10417-H08H, …); experiment: BLI, antibody captured on AHC probe, TNFR2 in solution
Summary of the method: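 Antibodies at 50 nM in Q buffer were held on antibody-capture sensors, and the sensors were then moved into recombinant human TNFR2 diluted 2-fold in Q buffer, starting from 100 nM. Q buffer was 10 mM PBS pH 7.4 with 0.02% Tween 20 and 0.2% BSA. The work used bio-layer interferometry on an Octet in Basic Kinetics mode, and Kon, koff and Kd come from these kinetic association measurements.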

[9] = molecular target: T2, TNFR2-His (Sino Biological, 10417-H08H, …); experiment: ELISA, plate coated with TNFR2-His (first test)
Summary of the method: (§4)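 Antibodies were serially diluted and incubated on blocked ELISA plates coated with C-terminally His-tagged recombinant human TNFR2. Detection used an enzyme-labelled anti-IgG secondary antibody, TMB development and a microplate reader, and the dilution series gave the EC50.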

[10] = molecular target: T2, TNFR2-His (Sino Biological, 10417-H08H, …); experiment: ELISA, plate coated with TNFR2-His (second test)
Summary of the method: as §4

| EC50 [1] [µg/mL] | EC50 [2] [µg/mL] | IC50 [3] [µg/mL] | IC50 [4] [µg/mL] | IC50 [5] | EC50 [6] [nM] | EC50 [7] [µg/mL] | Kd [8] [nM] | koff [8] [s⁻¹] | kon [8] [M⁻¹ s⁻¹] | EC50 [9] | EC50 [10] | Binder |
| --- | --- | --- | --- | --- | --- | --- | --- | --- | --- | --- | --- | --- |
| 0.036 | 0.0357 | 0.179 | 0.644 | 0.674 µg/mL and 4.52 nM |  |  |  |  |  |  |  | human-mouse chimeric TNFR2 monoclonal antibody 27F6-hFc (antibody, V domains shown, Mouse V regions of clone 27F6 with human constant regions) VH: EVQLQQSGTVLARPGASVKMSCKTSGYTFTSYWMHWVKQRPGQGLEWIGTIYPGNSDTSYNQKFKGKAKLTAVTSASTAYMELNSLTNEDSAVFYCTRENLLLRSYFFDYWGQGTTLTVSS VL: DIVMTQSPASLAVSLGQRATISCKASQSVDYDGDSYLNWYQQKPGQPPKLLIYAASNLPSGIPARFSGSGSGTDFTLNIHPVEEEDAATYYCQQSNEDPRTFGGGTKLEIK |
| 0.012 | 0.0123 |  |  |  | 0.195 | 0.0291 | 3.27 | 0.00216 | 659000 | 0.0454 µg/mL and 0.304 nM | 0.0346 µg/mL and 0.232 nM | human-mouse chimeric TNFR2 monoclonal antibody 12E12-hFc (antibody, V domains shown, Mouse V regions of clone 12E12 with human constant regions; also called human-mouse chimeric 12E12 antibody) VH: EVQLQQSGAELVKPGASVKLSCTVSGFNIKDFYIHWVKQRPEQGLEWIGRVDPEDGNTEYAPNFQDRATMTTDTSSNTAYLQLSSLTSVDTAVYYCSTWDGFSYFDYWGLGTTLTVSS VL: QAVVTQESALTTSPGETVTLTCRSSTGPVTTNNYANWVQEKPDHLFTGLIGGTNDRAPGVPARFSGSLIGDKTALTITGTQTEDEAVYFCALWYRNHWVFGGGTKLTVL |
